Columns and labels:
BaL virus envelope [1] = target: BaL virus envelope (HIV-1 groupM); experiment: cell-based or functional assay
[2] = target: HIV-1 isolate 77 envelope (HIV-1); experiment: cell-based or functional assay
NL4.3 env = NL4.3 env (HIV-1 groupM); experiment: cell-based or functional assay
Mn pseudovirus envelope = Mn pseudovirus envelope (HIV-1, UniProt P05877 32-856); experiment: cell-based or functional assay
[3] = target: VI1358 pseudovirus envelope (HIV-1); experiment: cell-based or functional assay
[4] = target: VI829 pseudovirus envelope (HIV-1); experiment: cell-based or functional assay
[5] = target: CA10-3 pseudovirus envelope (HIV-1); experiment: cell-based or functional assay
BaL virus envelope [6] = target: BaL virus envelope (HIV-1 groupM); experiment: cell-based or functional assay; remark: listed apart in the source
MJ4 pseudovirus envelope = MJ4 pseudovirus envelope (HIV-1); experiment: cell-based or functional assay
[7] = target: SF162 pseudovirus envelope (HIV-1, UniProt P19550 32-847); experiment: cell-based or functional assay
gp120SF162 [8] = target: T1, gp120SF162 (HIV-1, UniProt P19550 32-502); experiment: fluorescence polarization competition: 6 nM gp120SF162, 1 nM fluorescein-CD4M33
T1 construct: domain: gp120
From the text: (§1) Binding assays by fluorescence anisotropy were made in a LJL Analyst (LJL BIOSYSTEMS) microplate reader using 384-wells plates.

[9] = target: HIV-1 isolate 6393 envelope (HIV-1); experiment: cell-based or functional assay
[10] = target: HIV-1 isolate 714 envelope (HIV-1); experiment: cell-based or functional assay
gp120 IIIB [11] = target: T2, gp120 IIIB (HIV-1); experiment: fluorescence anisotropy, Alexa-488-labelled mini-protein (0.5 nM) titrated with gp120 in solution
T2 construct: domain: gp120
Method: as §1
(§2) Direct binding assays of fluorescent peptides were performed in triplicates by adding 10 μL of 0.5 nM Alexa-labeled mini-proteins and 10 μL of serial dilutions (two-thirds dilutions in 16 wells, starting at 200 nM) of gp120 SF2, SF162, BaL, IIIB and YU2. Collected data were fitted to the following equation using a non-linear regression program (Prism, GraphPad software Inc.):

gp120 Bal [12] = target: T3, gp120 Bal (HIV-1); experiment: as above
T3 construct: domain: gp120
Method: as §1, §2

gp120SF162 [13] = target: T1, gp120SF162; experiment: fluorescence anisotropy, ratio of the Kd values of Table I (upper end falls on SF162)
gp120 SF2 [14] = target: T4, gp120 SF2 (HIV-1, UniProt P03378 32-509); experiment: fluorescence anisotropy, ratio of the Kd values of Table I (lower end falls on SF2)
T4 construct: domain: gp120

gp120SF162 [15] = target: T1, gp120SF162; experiment: competitive ELISA, IC50 values of Table III (largest ratio falls on gp120SF162)
Method: Competition binding assays in ELISA were performed in 96-wells plates (MAXISORB). Briefly, 50 ng per well of antibody D7324 (AALTO BIO REAGENTS) were coated overnight at 4° C.

gp120 Bal [16] = target: T3, gp120 Bal; experiment: fluorescence anisotropy, ratio of the Kd values of Table I (lower end falls on Bal)
gp120 SF2 [17] = target: T4, gp120 SF2; experiment: fluorescence anisotropy, 0.5 nM CD4M47-F titrated with gp120
gp120 IIIB [18] = target: T2, gp120 IIIB; experiment: as above
gp120 Bal [19] = target: T3, gp120 Bal; experiment: as above
gp120SF162 [20] = target: T1, gp120SF162; experiment: as above
gp120YU2 = target: T5, gp120YU2 (HIV-1, UniProt P35961 32-498); experiment: as above
T5 construct: domain: gp120

Row | Binder | IC50, acute HIV-1 infection of PM1 cells (p24, day 5) [2] | IC50, HIV-1 infection of PBMC (p24, day 12) (NL4.3 env) | EC50, single-cycle HIV-1 pseudovirus infection of GHOST cells (luciferase) (Mn pseudovirus envelope) | EC50, single-cycle HIV-1 pseudovirus infection of GHOST cells (luciferase) [3] | EC50, single-cycle HIV-1 pseudovirus infection of GHOST cells (luciferase) [4] | EC50, single-cycle HIV-1 pseudovirus infection of GHOST cells (luciferase) [5] | EC50, single-cycle HIV-1 pseudovirus infection of GHOST cells (luciferase) (BaL virus envelope [6]) | EC50, single-cycle HIV-1 pseudovirus infection of GHOST cells (luciferase) (MJ4 pseudovirus envelope) | EC50, single-cycle HIV-1 pseudovirus infection of GHOST cells (luciferase) [7] | IC50 (read off the curve) (gp120SF162 [8]) | further results
1 | XNLHFCQLRCKSLGLLGRCAXTFCACV (not fully specified; N-terminal thiopropionic acid (TPA) at position 1; (D)Pro at 21; C-terminal amide; Lys11 carries a hydrazino group ligated to heparin mono-aldehyde) [CD4M48-heparin] | < 4 nM | < 80 nM | – | – | – | – | – | – | – | – | IC50, acute HIV-1 infection of PM1 cells (p24, day 5) (BaL virus envelope [1]): 850 nM; IC50, HIV-1 infection of MT-4 cells (MTS viability, day 5) (NL4.3 env): 112 nM
2 | XNLHFCQLRCKSLGLLGRCAXTFCACV (not fully specified; N-terminal thiopropionic acid (TPA) at position 1; (D)Pro at 21; C-terminal amide, optimized mini-protein, Phe at 23; unlabelled monomer; also called B4T) [CD4M48] | 250 nM | 0.44 nM | 4 nM | 57 nM | 755 nM | 63 nM | 77 nM | > 3300 nM | 5 nM | ~3 nM | IC50, acute HIV-1 infection of PM1 cells (p24, day 5) [9]: 95 nM; IC50, acute HIV-1 infection of PM1 cells (p24, day 5) (BaL virus envelope [1]): 185 nM; IC50, acute HIV-1 infection of PM1 cells (p24, day 5) [10]: 670 nM; IC50, HIV-1 infection of MT-4 cells (MTS viability, day 5) (NL4.3 env): 2.6 nM
3 | XNLHFCQLRCKSLGLLGRCAXTFCACV (not fully specified; N-terminal thiopropionic acid (TPA) at position 1; (D)Pro at 21; C-terminal amide; Lys11 carries a mercapto group ligated to a maleimido group of a polylysine construct with 50 Å PEGylated linkers, dimer of CD4M48-SH on a polylysine construct) [CD4M48D50] | – | – | – | – | – | – | – | – | – | ~1 nM | –
4 | XNLHFCQLRCKSLGLLGKCAGSXCACV (not fully specified; biphenylalanine (Bip) at 23; Alexa-488 on Lys11) [Alexa labeled mini-protein CD4M33] | – | – | – | – | – | – | – | – | – | – | Kd (gp120 IIIB [11]): 3.81 nM; Kd (gp120 Bal [12]): 6.36 nM
5 | XNLHFCQLRCKSLGLLGRCAXTFCACV (not fully specified; N-terminal thiopropionic acid (TPA) at position 1; (D)Pro at 21; C-terminal amide; Lys11 carries a mercapto group ligated to a maleimido group of a polylysine construct with 100 Å PEGylated linkers, tetramer of CD4M48-SH on a polylysine construct) [CD4M48T100] | < 4 nM | 1.3 nM | – | – | – | – | – | – | – | ~2 nM | –
6 | XNLHFCQLRCKSLGLLGRCAXTFCACV (not fully specified; N-terminal thiopropionic acid (TPA) at position 1; (D)Pro at 21; C-terminal amide; Alexa-488 on Lys11, also called CD4M48-F1; Alexa 488-labeled CD4M48) [Alexa labeled mini-protein CD4M48] | – | – | – | – | – | – | – | – | – | – | factor by which the Kd is smaller than that of CD4M33 (gp120SF162 [13]): 6.1 fold; factor by which the Kd is smaller than that of CD4M33 (gp120 SF2 [14]): 1.1 fold; Kd (gp120 IIIB [11]): 0.982 nM; Kd (gp120 Bal [12]): 5.46 nM
7 | XNLHFCQLRCKSLGLLGRCAXTFCACV (not fully specified; N-terminal thiopropionic acid (TPA) at position 1; (D)Pro at 21; C-terminal amide; Lys11 carries a mercapto group ligated to a maleimido group of a polylysine construct with 100 Å PEGylated linkers, dimer of CD4M48-SH on a polylysine construct) [CD4M48D100] | 3 nM | < 1.8 nM | – | – | – | – | – | – | – | ~2 nM | –
8 | XNLHFCQLRCKSLGLLGRCAXTXCACV (not fully specified; N-terminal thiopropionic acid (TPA) at position 1; (D)Pro at 21; biphenylalanine (Bip) at 23; C-terminal amide) [CD4M47] | – | – | 1 nM | 579 nM | 1200 nM | 91 nM | 108 nM | > 3410 nM | 22 nM | – | –
9 | XNLHFCQLRCKSLGLLGRCAXTXCACV (not fully specified; N-terminal thiopropionic acid (TPA) at position 1; (D)Pro at 21; Phe(para-[phenyl-ethoxy]) (U3) at 23; C-terminal amide) [CD4M48_U3] | – | – | 0.13 nM | 364 nM | 950 nM | 29 nM | 67 nM | > 3270 nM | 2 nM | – | –
10 | XNLHFCQLRCKSLGLLGRCAXTXCACV (not fully specified; N-terminal thiopropionic acid (TPA) at position 1; (D)Pro at 21; para-cyclo-pentylethoxyphenylalanine (U2) at 23; C-terminal amide) [CD4M48_U2] | – | – | 0.08 nM | 42 nM | 98 nM | 3.6 nM | 4 nM | 773 nM | 1.6 nM | – | fold enhanced affinity compared to CD4M47 (gp120SF162 [15]): ≤ 3 fold
11 | XNLHFCQLRCKSLGLLGRCAXTXCACV (not fully specified; N-terminal thiopropionic acid (TPA) at position 1; (D)Pro at 21; biphenylalanine (Bip) at 23; C-terminal amide; Alexa-488 on Lys11, also called CD4M47-F; CD4M47-F1) [Alexa labeled mini-protein CD4M47] | – | – | – | – | – | – | – | – | – | – | fold improvement of affinity over CD4M33 (gp120SF162 [13]): 5.2 to 12.3 fold; fold improvement of affinity over CD4M33 (gp120 Bal [16]): 5.2 to 12.3 fold; EC50 (read off the curve) (gp120 SF2 [17]): ~0.3 nM; EC50 (read off the curve) (gp120 IIIB [18]): ~0.9 nM; EC50 (read off the curve) (gp120 Bal [19]): ~1 nM; EC50 (read off the curve) (gp120SF162 [20]): ~0.3 nM; EC50 (read off the curve) (gp120YU2): ~3 nM; Kd (gp120 IIIB [11]): 0.589 nM; Kd (gp120 Bal [12]): 1.22 nM
12 | XNLHFCQLRCKSLGLLGRCAXTXCACV (not fully specified; N-terminal thiopropionic acid (TPA) at position 1; (D)Pro at 21; para-cyclo-hexylmethoxyphenylalanine (U1) at 23; C-terminal amide) [CD4M48_U1] | – | – | 0.07 nM | 5 nM | 11 nM | 0.3 nM | 2 nM | 87 nM | 0.65 nM | – | –
13 | XNLHFCQLRCKSLGLLGRCAXTFCACV (not fully specified; N-terminal thiopropionic acid (TPA) at position 1; (D)Pro at 21; C-terminal amide; Lys11 carries a mercapto group ligated to a maleimido group of a polylysine construct with 50 Å PEGylated linkers, tetramer of CD4M48-SH on a polylysine construct) [CD4M48T50] | – | – | – | – | – | – | – | – | – | ~1 nM | –

From patent US20090285798A1 (COMMISSARIAT A L ENERGIE ATOMIQUE, published 2009)
